From the supplement of paper PMC9170038

Key:
MS2 coat protein [1] = experiment: apparent KD of MS2 coat protein, switch OFF state (with FMN for OFF switches, without FMN for ON switches); designed switch direction (-1 OFF switch, 1 ON switch): -1; higher = weaker reporter binding; conditions: FMN input: 0 or 200 uM; Eterna round: R93 (includes R88 designs)
Summary of the method: (§1)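 Apparent KD stands for the median, per design, of fits to normalised cluster binding curves. The curves came from titrating on-chip-transcribed RNA switches on Illumina sequencing clusters with SNAP-549-labelled MS2 coat protein, twofold from 0.7 or 1.5 nM to 3 µM. Buffer was 100 mM Tris-HCl pH 7.5, 80 mM KCl, 4 mM MgCl2, without or with constant ligand.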

MS2 coat protein [2] = experiment: apparent KD of MS2 coat protein, switch ON state; designed switch direction (-1 OFF switch, 1 ON switch): -1; higher = weaker reporter binding; conditions: FMN input: 0 or 200 uM; Eterna round: R93 (includes R88 designs)
Summary of the method: as §1

Row | Sequence | apparent KD of MS2 coat protein (MS2 coat protein [1]) [µM] | apparent KD of MS2 coat protein (MS2 coat protein [2]) [µM]
1 | AAAAAGUCAGGAUAUGUCAAAGGUCACGAAAGUGACAAAGGACAGAAGGGACAUGAGGAUCACCCAUGUAAAAA [Fiskers Exclusion 4 D1] | 0.0495 | 0.0535
2 | AGGAAGUGAGGAUAUGCAUCAUAUAGUGGACGCUAUAGGAUGUAGAAGGCACAUGAGGAUCACCCAUGUUUAAA [EX4 Malc#40] | 0.032 | 0.029
3 | AGGAAACAUGAGGAUCACCCAUGUCAGGAUAUUUGAAAGAAAAGAAAAGAAAGAAGAAGAAGAAGGGACAAGAA [Narmer] | 0.0311 | 0.0276
4 | CUCAUGUCAGGAUAUGUCAAAAGUCACAAAAGUGACAAAAGACAGAAGGGACAUGAGGAUCACCCAUGUAAAAA [Starry Exclusion 4.6 (starryjess round 1 mod)] | 0.0155 | 0.0206
5 | ACUGAUACAGGAUAUACAUGAGUGAAAAAAGUAAAUCCACUACAUGAGGAUCACCCAUGUAGAAGGGUAUCAGA [Ex2 Design 179: Random 5B] | 0.0427 | 0.0521
6 | AAGAACAGAGGAUAUACAUGAGGAUCACCCAUGUAAAAGAAAGAGGGAAAAGAGAAAAGUAGAAGGCUGAAGAA [Arsinoe III] | 0.031 | 0.0269
7 | AAAAAACAUGAGGAUCACCCAUGUGAGGAUAUGCUGCGAAUAAAGAAAGAAGAAAGCAGCAGAAGGCACACCAA [Amethyst 77] | 0.0456 | 0.0265
8 | CCUACGUGAGGAUAUGCGGAUAACACGUUAGACAAAUAGACGCAGAAGGCACAUGAGGAUCACCCAUGUGAACC [JR_Exc004_Sub317] | 0.0176 | 0.0219
9 | AAAAAGGGAGGAUAUACAUGAGGAUCACCCAUGUGAAAGACGAAAAAGAGUCUAAAAAGUAGAAGGCCCAAAAA [65%, Moding Exclusion3-cac2, 9] | 0.043 | 0.0335
10 | AACAUGUAAGGAUAUUGAAGAAAAGAAAAGAAAGAAAAGAACAAGAAGGUACAUGAGGAUCACCCAUGUAAGAA [EteRNA is fun!] | 0.0186 | 0.0337
11 | GACGAGUGAGGAUAUGUAAAAAAAAGAGAAGAGAAGAGAGAACAGAAGGCACAUGAGGAUCACCCAUGUAGGGA [Default title] | 0.071 | 0.114
12 | AGCUAGUCAGGAUAUACGAACAGGUCAAAAGACUUGAAGGGACAUGAGGAUCACCCAUGUAGAAGGGACUAGCA [Mat - Exclusion 2 - JL mod - D25] | 0.128 | 0.0322
13 | AAAAAGUCAGGAUAUACAUGAGGAUCACCCAUGUAAAAAAAAGGGAAAAAAAAAAAGGGUAGAAGGGACGAAAA [Exclusion 3] | 0.0288 | 0.0253
14 | CCUAAGAAAGGAUAUACACCGGUGAACCGCUGAAAUCAGCAACAUGAGGAUCACCCAUGUAGAAGGUUUAUGGG [Erusqu] | 0.133 | 0.237
15 | AAAAAACAUGAGGAUCACCCAUGUGAGGAUAUCGAUAUUAAAGACACCCACUUAAUGGCGAGAAGGCGCAAAAA [Brourd 613 Mod 20 - Jieux - Exclusion 1] | 0.0265 | 0.0254
16 | AAAGGACGAGGAUAUACAUGAGGAUCACCCAUGUAAAAAACAUAGUAAAAGGGCUUGUGUAGAAGGCGUCCAAA [Meechl Ex3 2 R2 v10] | 0.0356 | 0.173
17 | AGCUAGUCAGGAUAUACAAACAUGUCAAAAGACGUGAAAAGACAUGAGGAUCACCCAUGUAGAAGGGACUAGCA [Mat - Exclusion 2 - JL mod - D14] | 0.0905 | 0.0298
18 | AAGAAGUCAGGAUAUGCUGCUCGUCACUUGCGUGAUGAGUAGCAGAAGGGACAUGAGGAUCACCCAUGUAAAGA [Exclusion4-cac2] | 0.0656 | 0.0507
19 | AAAAAGUGAGGAUAUGUCAAAGGUCACGAAAGUGACAAAGGACAGAAGGCACAUGAGGAUCACCCAUGUGGGAA [Fiskers Exclusion 4D1 65% - Early + late G segment 1] | 0.0776 | 0.0674
20 | AAGAGUAGAGGAUAUACAUGAAAAGAGUCGAAAGACUCAAAACAUGAGGAUCACCCAUGUAGAAGGCUACUCAA [Hyphema Seclusion Mod 62% 3] | 0.0814 | 0.137
21 | AAGAAGUCAGGAUAUCGAAAAGAAAAGAAAAGAAAAGAAAACGAGAAGGGACAUGAGGAUCACCCAUGUAAGAA [Smerdis] | 0.0257 | 0.0465
22 | AACUGACAUGAGGAUCACCCAUGUCAGGAUAUGCUUCAUAAAAAAAAAAAAAAAUGAUGCAGAAGGGACAUGAA [Design 25 :P Sub-opt 1] | 0.0141 | 0.013
23 | ACAAAACAUGAGGAUCACCCAUGUGAGGAUAUGCGAAACAAACAAACAAACAAACAAAGCAGAAGGCACAACAA [Ex 1 Tesla 3] | 0.031 | 0.0195

Row | Sequence | apparent KD of MS2 coat protein (MS2 coat protein [1]) [µM] | apparent KD of MS2 coat protein (MS2 coat protein [2]) [µM]
24 | AAGGGACAUGAGGAUCACCCAUGUAAGGAUAUCGGAAAAGGAAAAAAAAAAAAGAAGACGAGAAGGUACAAAAA | 0.0716 | 0.122
25 | AACAGUACAGGAUAUACAUGAGGAUCACCCAUGUCAGAAUUAAGCAGCGUAACACAAAGUAGAAGGGUAAUGGA [Ruby 18] | 0.0411 | 0.046
26 | AAGAACAGAGGAUAUACAAAAUAAAAGAAAAGAAAGAAAGAACAUGAGGAUCACCCAUGUAGAAGGCUGAAGAA [Sonbef] | 0.0241 | 0.0282
27 | AAAAAACAUGAGGAUCACCCAUGUAAGGAUAUGUAAAAUAAAAGAAAAAUAAAGAAAAGCAGAAGGUAUAUGAA [JL wbt mod 13] | 0.0407 | 0.0276
28 | AAAAAGUCAGGAUAUGCACAAAAAAAAAUAAAAAAAAAAGUGCAGAAGGGACAUGAGGAUCACCCAUGUAAGAU [Mat - Exclusion 4 - Mayanna - D118] | 0.0772 | 0.081
29 | AACAAGUCAGGAUAUCCGAAAAGUAAAUAAGUAAAACAAAAGGAGAAGGGACAUGAGGAUCACCCAUGUAAAUA [JR_Exc004_Sub015] | 0.0272 | 0.0481
30 | CUCAUGUAAGGAUAUGACUACAUAAAAAAAAAAAAAUGUAGUCAGAAGGUACAUGAGGAUCACCCAUGUACAAA [Brourd - Exclusion 4 - Sub 3] | 0.0252 | 0.059
31 | AAGAAGUCAGGAUAUGCUGCUCGUCACUUGCGUGAUGAGUAGCAGAAGGGACAUGAGGAUCACCCAUGUAAAGA [Opal 14] | 0.0656 | 0.0507
32 | AAGGGACAUGAGGAUCACCCAUGUGAGGAUAUGACGUAAAUAAAGAAAGAAGAAAUCGUCAGAAGGCACACCAA [55%, Disencluded 2, 3] | 0.117 | 0.067
33 | AAAAAACAUGAGGAUCACCCAUGUAAGGAUAUGCUAGGAAAAAGAAAAAUAAAAACUAGCAGAAGGUACAUAAA [JL wbt mod 10] | 0.0306 | 0.0253
34 | AGGAUGUCAGGAUAUGCGUGAAGAAUAAAACAAAUAACAACGCAGAAGGGACAUGAGGAUCACCCAUGUUAAGA [May 46] | 0.0683 | 0.0452
35 | AAGAAGUGAGGAUAUGUCUGUGCGAAAAAAAAAAAGUGCAGACAGAAGGCACAUGAGGAUCACCCAUGUAAAAA [Florian 65% 2] | 0.0481 | 0.0375
36 | AAGUGCGCAGGAUAUACAUGAGGAUCACCCAUGUAAAGAAAAGAAAGAUCCGAAGAAAGUAGAAGGGCGUGCAA [Variant 1 of Mod 1 of Ex3 sub 3, by Tesla's Dusciple Round 1] | 0.209 | 0.0496
37 | AAGAACACAGGAUAUACAUGAGGAUCACCCAUGUAAAAGAAAGAAGGGAAAGAGAAAAGUAGAAGGGUGAAGAA [Ker] | 0.0366 | 0.0331
38 | AACAAACAUGAGGAUCACCCAUGUGAGGAUAUCGGAUGUACAGCGCAAUUAGAAUUAACGAGAAGGCACACUUA [Ex1_Neo] | 0.0226 | 0.0227
39 | AGGGAGUCAGGAUAUCGGAAAACAAAACAACGAAAAAAAGACGAGAAGGGACAUGAGGAUCACCCAUGUAAGAA [milkweed 17] | 0.0216 | 0.0414
40 | AACAGUACAGGAUAUACAUGAGGAUCACCCAUGUGAGAAUUAAGUGGAGGACCACAAAGUAGAAGGGUACUGAA [Mat - Exclusion 3 - JL mod - D9] | 0.109 | 0.0569
41 | AGGAAACAUGAGGAUCACCCAUGUGAGGAUAUGUAAAAGAAAAGAAAAGAAAGAAGAAACAGAAGGCACAAGAA [Nynetjer] | 0.0491 | 0.0494
42 | AUAAAACAUGAGGAUCACCCAUGUGAGGAUAUGCGAAAUAAAGAAAUAAAUAAAUAAAGCAGAAGGCACAAUAA [Ex 1 Tesla 1] | 0.0219 | 0.0346
43 | AAAAACAUAGGAUAUACAUGAGGAUCACCCAUGUUAAAAUAAAGAAAGGGAGAAAUAAGUAGAAGGAUGAAAAA [Meechl Ex3 3] | 0.0312 | 0.0265
44 | AAAUGAUGAGGAUAUACAUGAGGAUCACCCAUGUGUAAAAAUAAAUACACAAAAGAAAGUAGAAGGCAUCAAAG [Mat - Exclusion 3 - Mayanna mod - D119] | 0.0886 | 0.0278
45 | AAGAAGGUAGGAUAUACUAGGGCAACUAAUGCAAAGAUAAAACAUGAGGAUCACCCAUGUAGAAGGGCCAGAAA [JR_Exc002_Sub401] | 0.0354 | 0.0338
